Data from the DeepSol protein solubility set.

Test: soluble on expression in E. coli; label from the status in PepcDB or PDB records

| Sequence | soluble on expression in E. coli |
| --- | --- |
| MGSDKIHHHHHHLKAIKYGVTREHIREFKVALTDGKVYKFGSKSVKSSSGYSLNDLIIGSEGTLGVITEAVLRLYPRPKHALNAIIPFPTLDDAIESVPAILASGVEYMGRKVLNLWEKYYDATFPIKEGDGFIILGIDSFTASDAEAQLAQALEAVKPFHALKETVLNAESDEAKTIWDAREKLLLAIQKSTPKMDEVDVSVPINKIPLVLHRIEELEKEEDMRIPNFGHAGDGNLHIYLCSDDMTDEEFAKKGDNVISELYKTAKSVDGNMSGEHGVGYARQNYYEDFYGKDYTDLLRKVKGLFDPKGILNPDKIFPLD | not soluble |
| MAHHHHHHMDKISPEILAARAKLKEKMGGNLRQIGGKGSARRKIKKVHKNSMSNEKKINLILKKIGASYFGDVDEICVYKAGDTYMEFKRPKLSASLQSNTYVVTGKFTEQKIDINKIFEGLKGNKNVDMNLLEKIKNDPNIKNLLNKENNGNAKKEEGAQEAADVPDLVENFEEVSKEEQK | soluble |
| MGSDKIHHHHHHMSELIEVTHLTFTYTGQAAPALKDVSLTIHAGEFITLVGATGSGKTTLLKQLKHELWPAGERTGSLTFQDTAIQALSPVESAQQIGYVAQDPQVQPIMATVMEELAFPLENLGYPTATINDRIAEIANYLDLNHLLQRAIETLSGGQLQLVNLASVLALKPQVILLDESTAQLDPTTAQKFLNILQQVHDELDLTIVLTEHRLSRVMALTDRVALLANGQVLTVAEPTPALQQMAATPALQAFVPPVPHFFLDHNLVVTPLPLSVTMGRRALRQSSWRFQAVTTRQPAQSGPRESVLVATGVSFHYPTTGDILHQVELQVATGDWLAIIGKNGSGKSTLLTVLAGLQKPQHGKVRLNQQVIWRMKNQDRVLQVGYLSQNPTEQFNGDSVREELTAQAQLRGTSVAQRVDQMLIRCHLTAVADQNSFDLSGGQQQLLGLGLALMTEPQVLLLDEPTKGLDPDTKLRIGQLLQQAHETGLTIIMASHDMDFSAQFADTCTFMFNGRVNPPQATRLFFTQNFLATTAVNRLLRQQVPQALFSQDVVRTDKGGE | not soluble |
| MDNVTSSQLLSVRHQLAESAGLPRDQHEFVSSQAPQSLRNRYNNLYSHTQRTLDMADMQHRYMTGASGINPGMLPHENVDDMRSAITDWSDMREALQHAMGIHADIVDYKDDDDK | soluble |
| GHWNQPWKCLVDHDGVFDNRMMGYATEELWFSEWENGGTPWENPAGYEQFNPVLHVDKWRVPMLVIHGQKDFRIPVEQGLAAFGALQRKGIESKLLYFHDENHWVLNPQNSIQWHDTVNAWLKKYIG | not soluble |
| VRILVTGGVRSGKSTHAEALLGDAADVVYVAPGRPAAGSDPDWDARVALHRARRPPTWLTVETADVATALSEARSPVLVDCLGTWLTAIMDGEALWSAATADVYAVLEARLDGLCAALTGLPTAIVVTNEVGLGVVPSHSSGVLFRDLLGTINRRVAAVCDEVHLVIAGRVLKL | soluble |
| MLLEISIYCRGGQGGVTAARILAATAMLQGYYSQSMPQFGPERRGAEVRAFLRISDERIRRKCPITYPDVVILFDLKLSFNGNPETVVVNCNGSSFTGHGNVFALDATEITRRYGLVNAGWPILGPAMAGTAAKALDLDPRCLLEAIRLELGDKADRSVKAAEEAYRVVECV | not soluble |
| MGSDKIHHHHHHMTPADNEIAEQQNFVDFNSILYTPQYAAGCFGLTTRRLMAIEEEHGLDIKRIKRGSSTSRVYTASDLFNIAALRRSLGHLKPIGRQIVASTFVPKGGTAKTTTAVNLAISAQFAGIKTLIIDNDPQGDTSNMLGYDPDLSPDDLVDMNIPSDRLVDGHFGNLLSPLLRMKPFSEKVLADVIKKPFGENGIHLIPADTYLEDLAVALDASNNSDMWYARFIEDANAGKVPGCDLSVYDLIIIDNAPAGSRLTKNSVAASDLLLCPVRMDKFSFRALLRLHEWCARFAKEYSYAPALMAIPTMFIRKRARLLANLQSLNTLFPGQVTEEKIYFSEDYSKSLDDGIPLMLWKRANSQTIDTARLVFGEILQKIRSLAA | not soluble |
| MPTALIADDEPNLSAELAERLAELWPELEIVAMPRNGVDTLAALNAARPDIAFLDIRMPGIDGLKLASLVPDVHVVFVTAYDEYAVEAFDRSAIDYLLKPVTDERLLRCIAKLQRGGFAPPGAQALSDARMPKEPTLIRWLTVGLKDTTRLVSVDDVLYFQALDKYTEVVTAGERHVIRTPLKELLQRLDQDRFAQVHRGVIVAYAAIDRIERDLLGRLCIHLHGHRDVLPVSRAYAGLFKHM | not soluble |
| KKVIIIINPTSGGEAALDYKESLESKAKEYFDHVETKITQRAKDATHFAQNASEEKYDAVIVFGGDGTVNEVISGISEKNHIPKLGIIPGRTGNLITKLLEIN | not soluble |
| MGSDKIHHHHHHMKIKKYVAESIREAMIMIRRELGENAVILSSRRIKKGGFFGIGGKTYFEVTAAVEEERKKEENTSYRLQEILVKNRQSSNDNIKGEFDEIKRTINEIKQMLVTEKRQTLPEGLSKILYGMEKQEILPEIRYKLIDFLKMKFGDLDPNSNETFKILSEQFVNLVKTNAPDFKNAKVLFVGTTGVGKTTSLAKLAARFKIDEKKRVAILTLDTYRIAAAEQLKIYADIMDIPMKIAYTPKEAEYEMMALKDYDIVLVDTAGRSHQNDLQMSELRALSEAVKPNITFLVLSMNYKLDDMKRIVERFSAVKPTHIILTKMDETSVYGTFVNISEITGLPIAFVTNGQRVPDDIFEANPVELARIVAGEVLNHARSSGTSEKE | not soluble |
| MEVAPEQPRWMAHPAVLNAQHPDSHHPGLAHNYMEPAQLLPPDEVDVFFNHLDSQGNPYYANPAHARARVSYSPAHARLTGGQMCRPHLLHSPGLPWLDGGKAALSAAAAHHHNPWTVSPFSKTPLHPSAAGGPGGPLSVYPGAGGGSGGGSGSSVASLTPTAAHSGSHLFGFPPTPPKEVSPDPSTTGAASPASSSAGGSAARGEDKDGVKYQVSLTESMKMESGSPLRPGLATMGTQPATHHPIPTYPSYVPAAAHDYSSGLFHPGGFLGGPASSFTPKQRSKARSCSEGRECVNCGATATPLWRRDGTGHYLCNACGLYHKMNGQNRPLIKPKRRLSAARRAGTCCANCQTTTTTLWRRNANGDPVCNACGLYYKLHNVNRPLTMKKEGIQTRNRKMSNKSKKSKKGAECFEELSKCMQEKSSPFSAAALAGHMAPVGHLPPFSHSGHILPTPTPIHPSSSLSFGHPHPSSMVTAMG | soluble |
| MIKEFCAENLTLLPTLDAGQVSRVELCDNLAVGGTTPSYGVIKEACQLLHDKKISVATMIRPRGGDFVYNDLELKAMEEDILKAVEAGSDALVLGLLTTENQLDTDAIEQLLPATQGLPLVFHMAFDHIPTDHQHQALDQLIDYGFVRVLTHGSPEATPITDNVEQLKSLVTYANKRIEIMIGGGVTAENCQNLSQLTGTAIVHGTKIILEHHHHHH | soluble |
| MHHHHHHGKPIPNPLLGLDSTENLYFQGIDPFTMNNRNHDVLSRMISEKAALHGLLNCLIKEFAIPEGYLRYEWPDEMKGIPPGAYFDGADWKGIPMMIGLPDQLQLFVMVDRRDTFGSQHYLSDVYLRQAQGDWQCPDFEPLVARLLAACEHIAGRKNPELYEQILQSQRLVSAIVSHNGRQRADAPLQHYLQSEQGLWFGHPSHPAPKARLWPAHLGQEQWAPEFQARAALHQFEVPVDGLHIGANGLTPQQVLDGFADQQPASPGHAIICMHPVQAQLFMQDARVQQLLRDNVIRDLGQSGRVASPTASIRTWFIDDHDYFIKGSLNVRITNCVRKNAWYELESTVLIDRLFRQLLDQHADTLGGLVAAAEPGVVSWSPAAAGELDSHWFREQTGGILRENFCRRTGAERSIMAGTLFARGVDLQPMIQTFLRTHYGEALDDNALLYWFDDYQTRLLRPVLSLFFNHGVVMEPHLQNSVLVHQQGRPQQVLLRDFEGVKLTDDLGIRYIDDDIHPRVRQSLLYSREQGWNRIMYCLFINHLSETILALSQGRPQLAPLMWRRVQQQLRAIQGELKQPSPELDALIAGHPVACKTNLKVRLAAEADRQASYVRLPSPWGHAVQHGSEVQHDERRHGDVRHEEARHGEVQHG | soluble |
| MGSDKIHHHHHHMRSDLRIAIVANEKRGDGNIELRLQSKGYQVVTLTTPSSVMGFIYSDPPDVILMDLSSPDEAFLGIIRSLKDDFFFSTIPVIGMMPEPAAEFFDWDEYPLDDFVTFPLNFRELFTRIVLSLRRLRRVFDNNPLTRLPGNTSIQRAIEQTVGKPMAVCYVDINHFKQYNDVYGFAHGDEVLRMLGRIMSNAVKDAGDGFAGHIGGDDFVFIVPFDQAEVVAGRIIANFTAVVSELFNEEEKRNGFFLAHDRKGNEEKVPLMGVAIAIVPTDSPKIGHYAKVAEVAAELKTLAKQSHKSCFVVDRRKY | not soluble |
| MLSRMRRKHFLSQTEHTFSRQEVSLWKEKQMICFMMNPSRKHIWASREEINMDHVVITIARQYGSGGRTVGKMLAERLGISFYDKQIIHMASDESGIDVNLFGKIEAGDKIKSSLFGNKSSIYKGDLVLPGNKDFISDENLFNYQAKVVNDLAEKESYVIVGRCVNYVFKDRPNTLRVFIHAPWEFRVEQASQKISGSREDVEKFLLKDDKRKQDYYRKFAGGQWSDATNYDLCLNSGKLGFDKCVDAIETQLKIMLGK | not soluble |
| MKLPARVFFTLGSRLPCGLAPRRFFSYGTKILYQNTEALQSKFFSPLQKAMLPPNSFQGKVAFITGGGTGLGKGMTTLLSSLGAQCVIASRKMDVLKATAEQISSQTGNKVHAIQCDVRDPDMVQNTVSELIKVAGHPNIVINNAAGNFISPTERLSPNAWKTITDIVLNGTAFVTLEIGKQLIKAQKGAAFLSITTIYAETGSGFVVPSASAKAGVEAMSKSLAAEWGKYGMRFNVIQPGPIKTKGAFSRLDPTGTFEKEMIGRIPCGRLGTVEELANLAAFLCSDYASWINGAVIKFDGGEEVLISGEFNDLRKVTKEQWDTIEELIRKTKGS | soluble |
| MMIDDSKVSFVIPTINEEGTIGSVIDGIRSEFPNSEIIVVDTNSTDRTREIARSKGARVIEEPRRGYGRAYQTGIPAASGEIIVCMDGDGTYPTDVVKPLIELLIADRVDFISCDRITFRTSKNYTTLHYVGNMVLNLTIRILFKVRMVDSQSGMWVFRSEIYRKMKNLGNGMSFSQNIKIEAVRHGVFMEIPIRYGVRITKPKLKTWHDGFHNLFALFVKRVSELEHHHHHH | soluble |
| RSEYVAPRSVWEARLAQVWEQVLNVPQVGALDDFFALGGHSLRAMRVLSSMHNEYQVDIPLRILFEKPTIQELAAFIEETAKGNVFSIEPVQKQAYYPVSSAQKRMYILDQFEGVGISYNMPSTMLIEGKLERTRVEAAFQRLIARHESLRTSFAVVNGEPVQNIHEDVPFALAYSEVTEEEARELVSSLVQPFDLEVAPLIRVSLLKIGEDRYVLFTDMHHSISDGVSSGILLAEWVQLYQGDVLPELRIQYKDFAVWQQEFSQSAAFHKQEAYWLQTFADDIPVLNLPTDFTRPSTQSFAGDQCTIGAGKALTEGLHQLAQATGTTLYMVLLAAYNVLLAKYAGQEDIIVGTPITGRSHADLEPIVGMFVNTLAMRNKPQREKTFSEFLQEVKQNALDAYGHQDYPFEELVEKLAIARDLSRNPLFDTVFTFQNSTEEVMTLPECTLAPFMTDETGQHAKFDLTFSATEEREEMTIGVEYSTSLFTRETMERFSRHFLTIAASIVQNPHIRLGEIDML | soluble |
| MAELDEAALLGDGNEQHDGPIDENALLDGKELKEEDIDDLYDEAIAPTNSTESAKPVSPTITTVTAPTAGIGAKPATSSEGRKYCCYVGNLLWYTTDADLLKALQSTGLARSQFADMKFFENRTNGQSKGYALLVLNSDAAVKQTMEILPTKTIHGQSPTVLSYNKTNQAKLEDAQAKNQTRPDVKKKGFEEGCVNMGTIRIGAGGQTGRTGTSVSGRSGPPPLMMQQVRPTPLMSQPTSLPSNLNQAPQMRLQINGQQVPLMNRAPVPQQTMLGNGPLGGMNQQIQQQPQMMMGQQVRPMMQTSMGIQPMMGMNAPPPMNNQFQNRPPQLGSMGVQPLMQMNTAMRPPINGLPPVHVNPQMFPGLQGTVLSDAEFEDVMTRNQTVSSSAIARAITDASVGDIKGASETILTAIQLIKNSRIGHDERCRQLVYGLEHTLKGLESKGYSSRSKSHRDRSRSRERDRKRRRRSRTRSRSYSRSPSPRRRRY | soluble |
